Experimental data published in the Immune Epitope Database (IEDB).

Legend:
[1] = molecular target: HLA-B*44:03; assay: IEDB peptide-MHC binding, purified MHC/competitive/radioactivity; filed as Kd, often an IC50 or EC50 that approximates it; ≥ and ≤ were set here for values at or beyond the usual limits of such assays
[2] = molecular target: HLA-B*18:01; assay: as above
[3] = molecular target: HLA-B*44:02; assay: as above
[4] = molecular target: HLA-B*40:02; assay: as above
[5] = molecular target: HLA-B*45:01; assay: as above
[6] = molecular target: HLA-B*40:01; assay: as above
[7] = molecular target: HLA-A*24:03; assay: IEDB peptide-MHC binding, purified MHC/direct/fluorescence; filed as Kd, often an IC50 or EC50 that approximates it; ≥ and ≤ were set here for values at or beyond the usual limits of such assays; details: source organism: Giardia lamblia ATCC 50803
[8] = molecular target: HLA-B*53:01; assay: IEDB peptide-MHC binding, purified MHC/competitive/radioactivity; filed as Kd, often an IC50 or EC50 that approximates it; ≥ and ≤ were set here for values at or beyond the usual limits of such assays
[9] = molecular target: HLA-A*32:01; assay: as above; details: source organism: Vaccinia virus Copenhagen
[10] = molecular target: HLA-B*15:03; assay: as above
[11] = molecular target: HLA-B*15:01; assay: IEDB peptide-MHC binding, purified MHC/competitive/fluorescence; filed as Kd, often an IC50 or EC50 that approximates it; ≥ and ≤ were set here for values at or beyond the usual limits of such assays; details: source organism: Yersinia pestis Angola
[12] = molecular target: HLA-B*51:01; assay: IEDB peptide-MHC binding, purified MHC/competitive/radioactivity; filed as Kd, often an IC50 or EC50 that approximates it; ≥ and ≤ were set here for values at or beyond the usual limits of such assays; details: source organism: Dengue virus 2 Jamaica/1409/1983
[13] = source organism: SARS coronavirus Tor2
[14] = source organism: Mammarenavirus machupoense
[15] = source organism: Dengue virus 1 Singapore/S275/1990
[16] = source organism: Mammarenavirus brazilense
[17] = source organism: Mammarenavirus choriomeningitidis

## GEDIQLLKA
[1]; [13]
  Kd: 2660 nM
[2]; [13]
  Kd: 1080 nM
[3]; [13]
  Kd: 13600 nM
[4]; [13]
  Kd: 2730 nM
[5]; [13]
  Kd: 2880 nM
[6]; [13]
  Kd: 7550 nM

## TVQKDGMYF
[7]
  Kd: 460 nM

## SELVIGAVII
[1]; [13]
  Kd: 827 nM
[2]; [13]
  Kd: ≥ 47200 nM
[3]; [13]
  Kd: 1690 nM
[4]; [13]
  Kd: 1180 nM
[5]; [13]
  Kd: 1900 nM
[6]; [13]
  Kd: 684 nM

## RELLKSLSGL
[1]; [14]
  Kd: ≥ 23300 nM
[2]; [14]
  Kd: ≥ 70400 nM
[3]; [14]
  Kd: ≥ 22500 nM
[4]; [14]
  Kd: 61.2 nM
[5]; [14]
  Kd: ≥ 70000 nM
[6]; [14]
  Kd: 877 nM

## MEVTARWLW
[1]; [15]
  Kd: 10.9 nM
[8]; [15]
  Kd: 804 nM
[3]; [15]
  Kd: 2.1 nM

## SMWYIPNVF
[9]
  Kd: 5.1 nM
[10]; source organism: Vaccinia virus Copenhagen
  Kd: 0.722 nM

## KENDSKEGFF
[1]; [13]
  Kd: 30 nM
[2]; [13]
  Kd: 7490 nM
[3]; [13]
  Kd: 39.8 nM
[4]; [13]
  Kd: 366 nM
[5]; [13]
  Kd: 24.4 nM
[6]; [13]
  Kd: 2690 nM

## RIYHEFLSL
[11]
  Kd: 97.5 nM

## MKSLAMTAF
[10]; source organism: Vaccinia virus WR
  Kd: 0.182 nM

## LPETMETLL
[8]; source organism: Dengue virus 3 Martinique/1243/1999
  Kd: 3580 nM

## TEQFLCYAL
[1]; [14]
  Kd: 1500 nM
[2]; [14]
  Kd: 21 nM
[3]; [14]
  Kd: 143 nM
[4]; [14]
  Kd: 8.88 nM
[5]; [14]
  Kd: 26.6 nM
[6]; [14]
  Kd: 10600 nM

## LPVWLAYRV
[12]
  Kd: 130 nM
[8]; source organism: Dengue virus 2 Jamaica/1409/1983
  Kd: 200 nM

## IDPTLTTWI
[1]; [16]
  Kd: 1370 nM
[2]; [16]
  Kd: ≥ 42000 nM
[3]; [16]
  Kd: 3580 nM
[4]; [16]
  Kd: ≥ 10000 nM
[5]; [16]
  Kd: 7230 nM
[6]; [16]
  Kd: ≥ 53300 nM

## IETALRTLI
[1]; [17]
  Kd: 2200 nM
[2]; [17]
  Kd: 3450 nM
[3]; [17]
  Kd: 2780 nM
[4]; [17]
  Kd: 154 nM
[5]; [17]
  Kd: ≥ 54000 nM
[6]; [17]
  Kd: 1860 nM
